Experiments:
[1] = biological target: Dut80α D81A D110C S168C (Staphylococcus aureus phage 80α); test: BLI; as a1 but non-reducing buffer (400 mM NaCl, 75 mM HEPES pH 7.5, 5 mM MgCl2); no nucleotide; 1:1 model
[2] = biological target: Dutϕ11^ΔV, Dutϕ11 motif V deletion mutant (Staphylococcus aureus phage ϕ11); test: BLI; BLItz; His-tagged Dut immobilised at 1 μM on Ni-NTA biosensors, Stl in solution (at least five dilutions, 4 to 0.062 μM); buffer STL (400 mM NaCl, 75 mM HEPES pH 7.5, 5 mM MgCl2, 2 mM DTT); no nucleotide; 1:1 model
[3] = biological target: Dut80α^Y84I (Staphylococcus aureus phage 80α); test: as above
[4] = biological target: Dut80α^ΔV, Dut80α motif V deletion mutant (Staphylococcus aureus phage 80α); test: as above
[5] = biological target: Dut80α D81A D110C S168C (Staphylococcus aureus phage 80α); test: as above
[6] = biological target: Dut80α^G164S (Staphylococcus aureus phage 80α); test: as above
[7] = biological target: Dut80α^WT, wild-type dUTPase of phage 80α (Staphylococcus aureus phage 80α); test: as above
[8] = biological target: Dut80α^ΔVI-IV-11 (Staphylococcus aureus phage 80α); test: as above
[9] = biological target: Dut80α^ΔVI, Dut80α lacking motif VI (Staphylococcus aureus phage 80α); test: as above
[10] = biological target: Dutϕ11^ΔVI, Dutϕ11 lacking motif VI (Staphylococcus aureus phage ϕ11); test: as above
[11] = biological target: Dutϕ11^IV-80α (Staphylococcus aureus phage ϕ11); test: as above
[12] = biological target: Dut80α^ΔV, Dut80α motif V deletion mutant (Staphylococcus aureus phage 80α); test: BLI; as a1, buffer STL supplemented with 5 mM dUMP (baselines and dissociation without nucleotide); 1:1 model
[13] = biological target: Dut80α^WT, wild-type dUTPase of phage 80α (Staphylococcus aureus phage 80α); test: as above
[14] = biological target: Dutϕ11^WT, wild-type dUTPase of phage ϕ11 (Staphylococcus aureus phage ϕ11); test: as above
[15] = biological target: Dut80α D81A D110C S168C (Staphylococcus aureus phage 80α); test: BLI; as a1 but non-reducing buffer (400 mM NaCl, 75 mM HEPES pH 7.5, 5 mM MgCl2) with 0.5 mM dUPNPP; 1:1 model

Stl repressor from SaPIbov1 (natural protein)
Kd [1]: 6 nM | koff [1]: 0.00085 s⁻¹ | kon [1]: 140000 M⁻¹ s⁻¹ | Kd [2]: 1.42 nM | koff [2]: 4e-05 s⁻¹ | kon [2]: 28000 M⁻¹ s⁻¹ | Kd [3]: > 1000 nM | Kd [4]: 530 nM | koff [4]: 0.009 s⁻¹ | kon [4]: 17000 M⁻¹ s⁻¹ | Kd [5]: 58.3 nM | koff [5]: 0.0014 s⁻¹ | kon [5]: 24000 M⁻¹ s⁻¹ | Kd [6]: 156 nM | koff [6]: 0.0047 s⁻¹ | kon [6]: 30000 M⁻¹ s⁻¹ | Kd [7]: 40 nM | koff [7]: 0.001 s⁻¹ | kon [7]: 25000 M⁻¹ s⁻¹ | Kd [8]: 4.56 nM | koff [8]: 0.00026 s⁻¹ | kon [8]: 57000 M⁻¹ s⁻¹ | Kd [9]: > 1000 nM | Kd [10]: 11.4 nM | koff [10]: 0.00024 s⁻¹ | kon [10]: 21000 M⁻¹ s⁻¹ | Kd [11]: 3.33 nM | koff [11]: 0.00025 s⁻¹ | kon [11]: 75000 M⁻¹ s⁻¹ | Kd [12]: 602 nM | koff [12]: 0.005 s⁻¹ | kon [12]: 8300 M⁻¹ s⁻¹ | Kd [13]: 23.5 nM | koff [13]: 0.0008 s⁻¹ | kon [13]: 34000 M⁻¹ s⁻¹ | Kd [14]: 1.93 nM | koff [14]: 5.8e-05 s⁻¹ | kon [14]: 30000 M⁻¹ s⁻¹ | Kd [15]: 19.3 nM | koff [15]: 0.0011 s⁻¹ | kon [15]: 57000 M⁻¹ s⁻¹

Source: publication PMC4914113, “Another look at the mechanism involving trimeric dUTPases in Staphylococcus aureus pathogenicity island induction involves novel players in the party” (Nucleic Acids Research, 2016)
